From the supplement of paper PMC12764529
± gives the half width of the 95% confidence interval.

How the values were obtained:
[1] = folding stability dG unfold from trypsin proteolysis; higher = more stable
Method in brief: (§1)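 Unfolding free energy was derived, per protease or combined, against a sequence-predicted unfolded-state K50 and a shared folded-state K50, starting from K50 inferred by Bayesian fitting of sequencing counts. Digestion with trypsin and chymotrypsin was carried out on designed mini-proteins under 80 residues without cysteine in a PA-tagged cDNA display construct. Only designs with AlphaFold2 dimer inter-PAE above 15 were kept.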

[2] = folding stability dG unfold (combined trypsin and chymotrypsin); higher = more stable
Method in brief: as §1

[3] = folding stability dG unfold from chymotrypsin proteolysis; higher = more stable
Method in brief: as §1

Sequence	folding stability dG unfold [1]	folding stability dG unfold [2]	folding stability dG unfold [3]
SAGGKSIHIADATLEDLVDLIANLPEPVVIHVERPVTFPVLLLENGVVAAVRTETAPATLTLTIPPELSAGG [r13_632_TrMRF]	0.408 ± 0.021 kcal/mol	0.389 ± 0.05 kcal/mol	0.258 ± 0.087 kcal/mol
SAGGNIQIHYNPDWGVIRITYMFPSPTEAEDFIKKLLPPGYKIEPIEVERNPDGYYQVSIEIRLPKGASAGG [r13_338_TrROS]	2.82 ± 0.12 kcal/mol	3.64 ± 0.063 kcal/mol	3.924 ± 0.036 kcal/mol
SAGGSAGGMTVTTTSSFDPTSPTANTLTTTYVSPEELKRPEIQALPDLPGKTLEFPTTTPVPPPSAGGSAGG [r6_768_JUSTAS]	0.679 ± 0.031 kcal/mol	0.431 ± 0.085 kcal/mol	0.0452 ± 0.048 kcal/mol
SKPILKIKINIPVLKDKNGKEIIPSPNDVLAALEKLGIPVDKAEITKIGKNTIPILILVDLVDGKAYVKDSA [r9_225_TrMRF]	1.51 ± 0.059 kcal/mol	1.13 ± 0.1 kcal/mol	0.539 ± 0.054 kcal/mol
SAGGSMLTPDQVIELPDPNVTATITESEVLEEDPEHGTLLVKYLVVISKNGNPVEEERLLRVPKPVSAGGSA [r2_272_JUSTAS]	0.205 ± 0.042 kcal/mol	-0.01 ± 0.079 kcal/mol	-0.476 ± 0.22 kcal/mol
SAGGAKITVDDNKITIELPLPNGKPAGSINEPLPDGSSRILVKFPDFVLHLEITPEGIKIASIDNNKDSAGG [r13_619_TrMRF]	1.27 ± 0.068 kcal/mol	1.51 ± 0.22 kcal/mol	1.77 ± 0.064 kcal/mol
SAGGSMLEVYYRIPPDIPLEEALERVAREVEEVLRARYGGPVTVEAEEVERPPDDETLLRVLVRFESAGGSA [r2_214_TrMRF]	1.7 ± 0.03 kcal/mol	2.37 ± 0.11 kcal/mol	2.558 ± 0.024 kcal/mol
SAGGSAGMIEVEIRPTPEGGYEVLVKFYGPGGVEVEEKKYRFGSEEEAKKFLEELAKKNGYSVKIRSAGGSA [r15_242_JUSTAS]	2.11 ± 0.056 kcal/mol	3.3 ± 0.067 kcal/mol	3.74 ± 0.027 kcal/mol
SSPIMIKMKDPDDREKIEKAVEEINDETGMSIRPESVDPNGKYTFMINMPPEHQKKILKALREAGNIEIVSA [r9_472_TrROS]	0.289 ± 0.21 kcal/mol	0.874 ± 0.16 kcal/mol	1.1 ± 0.15 kcal/mol
SAGGGPPAKPVYLTVTVTTEDPVETAKKVEEEVKKLFPDAEILKVEVKKNPETNLYTVTVYVKKLVKSAGGS [r8_120_TrMRF]	2.67 ± 0.075 kcal/mol	4.3 ± 0.092 kcal/mol	4.58 ± 0.079 kcal/mol
SAGGSAGGSAGGSPKTILLEVNGRLVLVTVKDGKVEIRDLENPNKTYTFPPGAKILIVDSAGGSAGGSAGGS [r4_321_TrROS_Hall]	1.61 ± 0.021 kcal/mol	1.84 ± 0.06 kcal/mol	1.91 ± 0.035 kcal/mol
SAGGSAGGSMWIVRIEYENPDNGKTYTIPIFVPPEDAEEIAKEIAEQLPGIKDIKVEIYPLNDSAGGSAGGS [r12_757_TrROS]	1.52 ± 0.064 kcal/mol	2.03 ± 0.16 kcal/mol	2.22 ± 0.079 kcal/mol
SAGGSAGGSAGKKKLTVTVKKKKPAKEKKKVKTKVVKEKKLELSEEELKKLLDELKELLESAGGSAGGSAGG [r11_418_TrROS_Hall]	0.624 ± 0.079 kcal/mol	0.321 ± 0.16 kcal/mol	-0.447 ± 0.14 kcal/mol
SAGGSDEHEYKGTGRDPDNGQTREETYRVEPVVPPIPISISVSLNLDIDPNGNLNWDFNISIGIGISAGGSA [r2_326_TrROS]	2.78 ± 0.2 kcal/mol	3.33 ± 0.37 kcal/mol	3.81 ± 0.33 kcal/mol
SAGGNIKIKLKGKIYDLNSNKYYDVEIEYDPKTGKAIITTPKGLKFEINPKEKKAEIPSKNYALEIGSAGGS [r16_743_TrMRF]	1.21 ± 0.096 kcal/mol	1.2 ± 0.16 kcal/mol	1.37 ± 0.17 kcal/mol
SAGGARFEFTTPEGDRVTVELETTADELRVRVTVHRENEPFTLEATFPLPPPAPPAVPADVPGPSLLLSAGG [r13_691_TrMRF]	2.06 ± 0.15 kcal/mol	1.91 ± 0.21 kcal/mol	1.62 ± 0.089 kcal/mol
SAANPKDIVKAEIEIPGKYGAKFTVYTLPDGTVIVPAEVTLIEGDKPVKKPLVLVVDASTGKILAIADASAG [r14_630_TrMRF]	1.09 ± 0.033 kcal/mol	1.46 ± 0.042 kcal/mol	1.68 ± 0.06 kcal/mol
SAGGMKITKEGNELTLTYPNLTVTYDPNTGKMTITNPATGKTVTIPVPATSLEEKLAAVEEVKAALPSAGGS [r8_447_JUSTAS]	1.06 ± 0.025 kcal/mol	0.918 ± 0.041 kcal/mol	0.707 ± 0.042 kcal/mol
SAGGSAMSIPLEELIEYVKKPGYKITEKKLPNGTLEITITNPKTGKTTKVTVYPPPTFSVEIKPDPSAGGSA [r15_442_JUSTAS]	1.28 ± 0.034 kcal/mol	1.07 ± 0.091 kcal/mol	0.876 ± 0.12 kcal/mol
SAGGSAGGSAGGEKEEEEVTVTIYNKETDKVIEITVPKGVTEEEARKKAKELAEELEKKKSAGGSAGGSAGG [r7_957_TrROS_Hall]	0.29 ± 0.032 kcal/mol	-0.00187 ± 0.19 kcal/mol	-0.316 ± 0.21 kcal/mol
SAKKTVKLKIEIYKVKVEKLKDGKEKITEVEKIAELEIEAEVDEDGKVTIRIDGKEIEVPAGTSLEELLSAG [r14_909_TrROS_Hall]	2.22 ± 0.17 kcal/mol	2.76 ± 0.18 kcal/mol	3.06 ± 0.12 kcal/mol
